What was measured:
[1] = biological target: CEACAM-binding Opa protein (OpaCEA) from N. gonorrhoeae, expressed in E. coli (E. coli OpaCEA) (Neisseria gonorrhoeae)
[2] = biological target: AfaE-III adhesin of uropathogenic E. coli strain A30 (E. coli AfaE-III) (E. coli (uropathogenic strain A30))

GFP-tagged amino-terminal IgV-like domain of human CEA (CEA-N) (domain or fragment)
bacteria recovered from the urogenital tract 24 h after vaginal infection, CEAtg mice (human CEA on mucosal surfaces) against wildtype mice [1]: > 30 fold
bacteria recovered from the urogenital tract 24 h after vaginal infection, CEAtg mice (human CEA on mucosal surfaces) against wildtype mice [2]: > 80 fold
